This note sets out measurements from patent US20060057138A1 (published 2006).

Where a chain is given by its changes, count along the chain named. Bounds are passed on as bounds.

Test [1] addresses T1, recombinant human Tie1-Fc (Tie1 extracellular domain fused to human Fc) (human, UniProt P35590 25-759).
T1 construct: also called human Tie1-Fc fusion protein; not shown: human Fc
T1 sequence: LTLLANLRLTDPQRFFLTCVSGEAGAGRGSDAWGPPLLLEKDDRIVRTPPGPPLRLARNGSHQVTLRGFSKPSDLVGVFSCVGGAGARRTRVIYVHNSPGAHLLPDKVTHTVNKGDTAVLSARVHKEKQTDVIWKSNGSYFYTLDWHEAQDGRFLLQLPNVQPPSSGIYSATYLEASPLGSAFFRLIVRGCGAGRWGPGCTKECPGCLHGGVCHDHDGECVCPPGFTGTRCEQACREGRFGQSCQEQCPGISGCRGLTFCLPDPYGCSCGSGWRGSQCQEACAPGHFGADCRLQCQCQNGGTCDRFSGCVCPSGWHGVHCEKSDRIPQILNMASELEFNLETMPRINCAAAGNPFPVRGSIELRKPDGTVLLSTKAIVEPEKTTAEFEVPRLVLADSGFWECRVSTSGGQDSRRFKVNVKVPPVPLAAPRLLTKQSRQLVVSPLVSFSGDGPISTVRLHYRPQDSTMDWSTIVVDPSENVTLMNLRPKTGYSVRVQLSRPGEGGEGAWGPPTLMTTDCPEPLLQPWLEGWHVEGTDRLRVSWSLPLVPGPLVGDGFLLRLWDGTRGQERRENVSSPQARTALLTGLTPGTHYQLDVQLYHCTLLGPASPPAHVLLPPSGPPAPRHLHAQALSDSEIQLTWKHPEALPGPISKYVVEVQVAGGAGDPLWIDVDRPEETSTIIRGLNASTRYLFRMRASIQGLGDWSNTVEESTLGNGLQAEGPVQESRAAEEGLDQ
As to the kind of experiment: SPR (BIAcore 3000), CM5 chip; format of this row not stated. How it is done: (§1) Affinity analysis of the Fab and IgGs was performed using surface plasmon resonance using a BIAcore 3000 instrument. For this analysis both dimeric (Tie1-Fc fusion protein) and monomeric (Tie1-HIS) versions of the extracellular domain of the Tie1 were used. The sensor chips used in these experiments were CM5 (dextran-coated) which allow immobilization of proteins to the chip via standard amine coupling chemistries. The concentration of flowed antibody was determined using a surface plasmon resonance based method. Using a high-density protein A sensor chip, under mass transport limited conditions, the response signal is dependent only on the concentration of the antibody in the sample under test. This approach allows a precise determination of the antibody concentration, a parameter important for accurate determination of the KD.
470 RUs of Tie1 HIS protein were coated on a CM5 sensor chip and 5, 20, 100, and 500 nM of the Fab flowed over the chip at four different flow rates ([…]), rates in which the system is not mass transport limited. Kinetic data was typically determined using a range of analyte concentrations and three different chip coating densities. The data from the lowest coating density that gave a good signal was typically chosen, this was often in a range from 50-100 RUs. Using such low coating densities allowed the sensor curves to be fit using BIAEVALUATION™ 3.0 software to a 1:1 model, often even when using a bivalent analyte (IgG or Tie1-Fc fusion protein). For bivalent analytes, when fit to a 1:1 model was not possible, the curves were fit using a 2:1 model.

In test [2] the target is T2, recombinant mouse Tie1-Fc (mouse, UniProt Q06806 23-755).
T2 construct: extracellular domain; also called Mouse Tie 1-Fc antigen; mouse Tie1-Fc fusion protein; not shown: Fc
T2 sequence (looked up): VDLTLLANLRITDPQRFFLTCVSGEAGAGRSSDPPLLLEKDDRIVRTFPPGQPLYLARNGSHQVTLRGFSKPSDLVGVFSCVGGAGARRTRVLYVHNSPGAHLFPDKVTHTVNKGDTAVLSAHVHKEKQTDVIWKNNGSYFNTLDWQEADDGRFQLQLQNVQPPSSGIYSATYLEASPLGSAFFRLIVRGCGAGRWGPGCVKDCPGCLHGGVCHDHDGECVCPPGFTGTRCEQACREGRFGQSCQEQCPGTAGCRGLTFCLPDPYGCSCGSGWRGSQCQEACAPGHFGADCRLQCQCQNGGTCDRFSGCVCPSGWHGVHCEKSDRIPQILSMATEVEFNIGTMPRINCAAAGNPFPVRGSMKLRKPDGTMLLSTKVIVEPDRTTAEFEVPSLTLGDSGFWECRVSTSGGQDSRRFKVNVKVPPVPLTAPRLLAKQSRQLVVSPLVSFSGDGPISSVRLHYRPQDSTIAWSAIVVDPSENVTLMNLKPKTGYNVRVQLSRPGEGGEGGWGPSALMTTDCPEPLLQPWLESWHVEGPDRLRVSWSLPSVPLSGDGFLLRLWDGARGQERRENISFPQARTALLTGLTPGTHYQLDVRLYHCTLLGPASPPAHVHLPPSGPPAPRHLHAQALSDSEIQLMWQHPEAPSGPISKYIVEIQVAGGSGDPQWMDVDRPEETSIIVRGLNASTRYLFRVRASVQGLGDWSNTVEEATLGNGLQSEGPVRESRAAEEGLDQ
As to the kind of experiment: SPR, Tie1-Fc immobilized on the sensor chip, Fab as analyte. How it is done:
as §1
For orientation: Surface plasmon resonance follows binding to a sensor surface in real time, without labels.

Test [3] addresses T1, recombinant human Tie1-Fc (Tie1 …). The test is described as above. How it is done: as §1
For test [4] the target is unchanged. As to the kind of experiment: SPR, Tie1-Fc immobilized on CM5 sensor chip, bivalent anti-Tie1 as analyte. How it is done:
as §1

B1: parental E3 Fab (Fab, V domains shown)
VH: EVQLLESGGGLVQPGGSLRLSCAASGFTFSMYGMVWVRQAPGKGLEWVSVISPSGGNTGYADSVKGRFTISRDNSKNTLYLQVNSLRAEDTAVYYCARAPRGYSYGYYYWGQGTLVTVSS
VL: DIQMTQSPLSLSASVGDRVTITCRASQGIGHYLAWYQQKPGKVPKLLIYTASTLQSGVPSRFSGSGSGTDFTLTINSLQPEDVATYYCQQFNSYPHTFGQGTRLDIK
notes: also called E3 Fab parental; parental Fab E3
For B1, in test [1], the Kd turned out to be 5.4 nM, the koff came to 4.47e-05 s⁻¹ and the kon came to 8260 M⁻¹ s⁻¹.

B2: E3b Fab (heavy and light chain germlined E3 Fab) (Fab, V domains shown)
VH: B1 VH with V83M
VL: B1 VL with L9S, N76S, D105E
notes: The germlined heavy variable domain is printed with limits only under DX-2240; also called Fab E3b; germlined (E3b)
In the case of B2, in test [2], the Kd is about 3 nM. For the same molecule, the Kd in test [3] is about 3 nM. Also, in test [1], the Kd worked out at 4.7 nM, the koff came out at 4.41e-05 s⁻¹ and the kon stood at 9300 M⁻¹ s⁻¹.

B3: DX-2220 (full length, IgG1, germlined human anti-Tie1 antibody E3b) (antibody, V domains shown)
VH: B1 VH with V83M
VL: DIQMTQSPSSLSASVGDRVTITCRASQGIGHYLAWYQQKPGKVPKLLIYTASTLQSGVPSRFSGSGSGTDFTLTISSLQPEDVATYYCQQFNSYPHTFGQGTRLEIKR
notes: also called E3b-IgG1; germlined E3b IgG1
Take B3: in test [1], the Kd came to 5.2 nM, the koff is 3.67e-05 s⁻¹ and the kon was 7090 M⁻¹ s⁻¹. Also, in test [4], the Kd was 0.2 nM and the “fold increase in affinity against the anti-Tie1 Fab” value was over 10 fold.

In general, koff refers to the first-order rate constant of dissociation. A word on the kon: it is a measure of how fast the partners come together.
